B1: TPR t1 (parent)
chain: GACCAAUCUGCCCUCAGAGCUCGAGAACAUCUUCGGAUGCAGAGGAGGCAGGCUUCGGUGGCGCGAUAGCGCCAACGUCCUCAACCUCCAAUGCAUCCCACCACAUGAUGAUGCCUGAAGAGCCUUGGUUUUUUG

Variants of: B1
Experiment: polymerase ribozyme fitness, log enrichment relative to wild type (log ratio); higher = more active; in vitro selection for triplet polymerase activity
Procedure, shortened: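 Mutant libraries of each subunit of a heterodimeric triplet polymerase ribozyme were built by PCR and transcribed. Each library went through one round of in vitro selection in triplicate: annealing with biotinylated primer, partner subunit and triplets, frozen incubation at −7 °C, gel excision of extended constructs, streptavidin-bead capture and RT-PCR. Input and output libraries were Illumina-sequenced; only genotypes with ≥10 input reads and ≥1 read per output were kept. Fitness is log2(genotype enrichment/wild-type enrichment), using inverse-variance-weighted replicate averages.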

Row | Variant | polymerase ribozyme fitness (log ratio)
1 | G63U G93A | -1.31
2 | C64U G77A G93C C98U G120A C124G | -1.69
3 | G63U A105G | -3.13
4 | G63C C114U A118C | -3.66
5 | C62U C114A | -1.35
6 | C62U G63U U78G U81G | -5.08
7 | C64A C70G A95U G110C C114U | -5.6
8 | C62U C82A | -1.44
9 | C64U A66U | -0.148
10 | G63U C79G | -3.17
11 | G63U G135U | -2.37
12 | A66U G69U C88G C99A A119G | -5.79
13 | A66U U78C U87A A111U | -4.73
14 | A66U G128A | -3.15
15 | G63A C102U U133G | -2.77
16 | C64U C88U U106A U130A | -0.803
17 | C62G U112A | -0.878
18 | C62A C102A | -3.33
19 | G65C C114G | -6.28
20 | G63A U78C A84C U96G U116G | -4.46
21 | G61U U87C | 0.519
22 | G65U G120U | -5.78
23 | C62G A90U | -3.82
24 | C62G U132A | -0.911

Row | Variant | polymerase ribozyme fitness (log ratio)
25 | G61U U112C | 0.845
26 | C62G C80U | -2.03
27 | G61U U109A | -3.77
28 | G63A C123U G128C | -1.87
29 | G63C C86A U96G C102A | -5.23
30 | G63A A103U | -6.64
31 | G63U U87A | -1.45
32 | G63U U87G | -0.803
33 | G63A U78G U112A | -2.03
34 | A68G C115U | -3.75
35 | C62U A91C | -1.43
36 | C62A U126G | -2.4
37 | A68G C97A | -7.14
38 | C64U C85U | -1.42
39 | C62U A66G A100U | -2.66
40 | G63A U78C A91G A121G | 0.408
41 | C62G C114U | -4.41
42 | G61U U129C | -0.253
43 | G61U U129A | -1.21
44 | C62A C101G | -2.98
45 | G65A G120C U129A U132C | -6.78
46 | G63C U112A | 0.435
47 | G63C U112G | -0.181
48 | A66U C115A | -1.05

Row | Variant | polymerase ribozyme fitness (log ratio)
49 | C62A U130G | -1.46
50 | C64G U81G C101A G113A | -6.96
51 | A66U G93A A121G | 0.349
52 | C62A U78C A121C | 0.55
53 | C62A C101G C104U | -2.15
54 | A66C G113A | -1.78
55 | G63U A119G | -0.465
56 | G63U A119U | -0.897
57 | C62U A95G U96C | -1.53
58 | C64U C82U | -2.09
59 | C62U U87A A121U | 2.07
60 | C64U C89U G117C | -4.79
61 | A68G A100U U133A | -3.27
62 | A66U G77A | -0.981
63 | G63C C89A U116C | -3.78
64 | G63U A84C | -1.52
65 | G61U G135U | -1.65
66 | G63A C97U C115A | -0.416
67 | G63A U96G U112A A118G | -1.58
68 | A66C U92A | -6.51
69 | C62U C86U A100U G110A U129G | -4.42
70 | C62U C64U C123A G128A | -1.1
71 | C62U U92G | -2.9
72 | C62U U92A | -3.44

Row | Variant | polymerase ribozyme fitness (log ratio)
73 | G63U G77U | -3.54
74 | G63U C97U | -1.62
75 | G63A U125A | -1.21
76 | G63A U78C A95G | -0.717
77 | G63C U132A | -0.875
78 | G63A U112A U125A | -1.17
79 | U67A C70G C89G C123G | -6.22
80 | C62A C98U | -2.2
81 | G63U A90C C101A | -4.63
82 | C62G A90U U112A C115G C124U U133C | -5.24
83 | C64U C88U | -0.605
84 | C64U C88A | -0.544
85 | C64U A74G U78A | -2.93
86 | G63U U133G | -1.94
87 | G63A A119G G127U | 0.478
88 | C62U A100C U112C | -1.92
89 | C62A A91C C98G A111C C115U A118U G122A U126G | -7.7
90 | C64U C101G | -1.69
91 | C64G A111G | -5.39
92 | G63C A111U | -3.26
93 | G61U G113C | -1.82
94 | G63C A121G U130A | 0.94
95 | C62A C79A | -3.89
96 | C62A C79U | -0.345

Row | Variant | polymerase ribozyme fitness (log ratio)
97 | G63C G77C U129C | -3.13
98 | G63U A111U | -4.61
99 | C64U U81A | -0.925
100 | G63A C64U | -5.38
101 | C62G G110A U126G | -5.29
102 | G63A A83C G127A G128C | -3.2
103 | A66G C86G | -1.77
104 | G63A U78G | -2.6
105 | G63A U78C | -0.735
106 | A66G C72U G107A C123A | -6.86
107 | C62A C86A | -2.26
108 | G63A A90U | -3.43
109 | C62A G113C | -3.31
110 | C62G C115G U125A | -3.31
111 | C62U G117A | -1.28
112 | C62U G117U | -2.6
113 | A66U A75U G113A | -2.74
114 | G63A C72G C104G G120A G122U | -6.38
115 | C62A U96G G113C C123G U133A | -3.2
116 | G63A C102A | -3.54
117 | C64U A111C C115A G127A | -4.2
118 | A66C U87G A118U U132A | -0.678
119 | A66G C124G | 1.19
120 | G63U C114A G122U | -3.44

Row | Variant | polymerase ribozyme fitness (log ratio)
121 | G63A C79A | -3.48
122 | C62U C85A U106G C123G | -1.11
123 | C62A U129A | -2.21
124 | C62G A75C A118U C123A G135U | -2.3
125 | G63C C115G | -2.43
126 | C62G G117C | -5.09
127 | C62G G117U | -3.34
128 | C62A G127C | -1.29
129 | C62A G127A | -2.22
130 | C62U U106C | -0.141
131 | A66C A74C A111C | -2.24
132 | G63A C88U | -1.46
133 | C62G C72U | -2.53
134 | C62U A91U G120A | -2.6
135 | A66U U81G U116G C124A | -5.38
136 | A66G U96C A118U | -1.1
137 | C64U A83U | 0.866
138 | C64U U87A U109C | -5.61
139 | A66G C123G U133A | 1.16
140 | G63U G120C | 0.0622
141 | C64U C82G C89A U109A | -5.15
142 | C64A G113C A118G | -6.38
143 | C62U C85A C101G | -3.99
144 | G63A C85A C115U | -4.85

Row | Variant | polymerase ribozyme fitness (log ratio)
145 | A66C U133A | -0.805
146 | C62U A83C C88U G120A | 0.0358
147 | C64G U112G G120A | -5.95
148 | G63U G71C G113A | -6.74
149 | G63A C123G | 0.797
150 | C62G U106A A108G C115A C123A | -5.43
151 | C62G G113C | -4.48
152 | C62U C88G | -0.561
153 | G63U C88U | -2.31
154 | C64A A66C C104A | -6.61
155 | G63A C97A | -6.64
156 | C62A G135C | -0.579
157 | C62A G135U | -1.52
158 | C62A U78G | -2.46
159 | G63U G120C G128C | -4.02
160 | G63A A121C | 0.832
161 | G63U U81G C97U U106A G120A U133C | -3.57
162 | C62A U96A | -1.77
163 | C62A U87A A100C C115A | -2.71
164 | C62U G110C C124U U125A | -5.16
165 | C64G U78C | -6.9
166 | C62A C73G G117C U129G | -6.43
167 | C62G U133A | -1.22

Reference: the RNAGym collection of RNA variant scans (doi:10.1073/pnas.2313332121)
